{
  "source": "patent US20240415930A1",
  "about": "“COMPOSITIONS AND METHODS FOR ENHANCING BRAIN PERFUSION” (Washington University, priority 2021, published 2024)",
  "molecules": {"B1": {"name": "macrophage colony stimulating factor (protein, UniProt P07141 33-552, looked up)", "Macrophage colony-stimulating …": "KEVSEHCSHMIGNGHLKVLQQLIDSQMETSCQIAFEFVDQEQLDDPVCYLKKAFFLVQDIIDETMRFKDNTPNANATERLQELSNNLNSCFTKDYEEQNKACVRTFHETPLQLLEKIKNFFNETKNLLEKDWNIFTKNCNNSFAKCSSRDVVTKPDCNCLYPKATPSSDPASASPHQPPAPSMAPLAGLAWDDSQRTEGSSLLPSELPLRIEDPGSAKQRPPRSTCQTLESTEQPNHGDRLTEDSQPHPSAGGPVPGVEDILESSLGTNWVLEEASGEASEGFLTQEAKFSPSTPVGGSIQAETDRPRALSASPFPKSTEDQKPVDITDRPLTEVNPMRPIGQTQNNTPEKTDGTSTLREDHQEPGSPHIATPNPQRVSNSATPVAQLLLPKSHSWGIVLPLGELEGKRSTRDRRSPAELEGGSASEGAARPVARFNSIPLTDTGHVEQHEGSSDPQIPESVFHLLVPGIILVLLTVGGLLFYKWKWRSHRDPQTLDSSVGRPEDSSLTQDEDRQVELPV"}},
  "test_system": "perivascular macrophages (PVMs)",
  "assay": "M-CSF treatment of aged mice: OVA tracer diffusion/coverage (CSF flow)",
  "type": "in vivo",
  "experimental": "FIG. 3U is a schematic diagram summarizing an experimental design to determine the effect of M-CSF treatment on CSF flow in aged mice.\nFIG. 7D is a schematic diagram summarizing an experimental design wherein old mice were treated with M-CSF (or aCSF as a control group). Six hours after treatment, mice received OVA via ICM injection, and brains were harvested one hour after OVA diffusion.\nFirst, it was observed that tracer diffusion in aged mice (24-month-old) was impaired compared to young/adult mice (3-month-old) (FIGS. 7A, 7B, 7C, 7D, 7E, and 7F).",
  "note": "Entries after “also recorded” stand apart in the source; their conditions may differ.",
  "data": [
    {"molecule": "B1", "values": [
      {"measurement": "OVA tracer diffusion/coverage through the brain", "setting": "aged (24-month-old) mice, OVA ICM six hours after ICM M-CSF, brains harvested one hour later, vs aCSF", "value": "improved tracer diffusion through the brain tissue; also recorded: increase in OVA diffusion/coverage compared to aCSF-treated mice; also recorded: improved perfusion of the brains in older mice"},
      {"measurement": "state of perivascular macrophages", "setting": "older mice, ICM injection", "value": "rejuvenated the perivascular macrophages"}
    ]}
  ]
}
